From patent publication US12180485B2, “Repressible control of gene expression” (TRUSTEES OF BOSTON UNIVERSITY, priority 2020, dated 2024) come the findings set out here.

Assay [1] has as its system mCherry expression in HEK293 FT cells. Description: Inducible split RfxCas13d (GIB, RAP, ABA, Dano, GRZ CID domains; NES/NLS variants) mCherry knockdown, leakiness and inducibility. The format is cell-based. The following applies: inducible polypeptide systems of Tables 18-22. A digest of the protocol: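 mCherry knockdown in HEK293 FT cells by split RfxCas13d halves fused to GIB, RAP, ABA, Dano or GRZ dimerization domains, scored with and without inducer. Leakiness score and induced activity were derived per split site; NES/NLS compartmentalization and reversed CID orientation were also tested.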

The next assay concerns mCherry. Description: mCherry knockdown by inducible split RfxCas13d (ON switch) in transfected HEK 293 FT cells, flow cytometry. Particulars: for performance after NES/NLS compartmentalization: GIB induced split pairs, NES on one moiety, NLS on the other; for knockdown across the various CID systems: split pairs coupled with CID domains, with inducer. Type of assay: cell-based. A general note: In flow cytometry, cells or beads pass a laser one at a time.

Entries after “also recorded” stand apart in the source; their conditions may differ.

B1: SEQ ID NO: 796: inducible system polypeptide, probably Table 20 (GID-GAI) (protein)
chain: MAPKKKRKVGIHGVPAAKRDHHHHHHQDKKTMMMNEEDDGNGMDELLAVLGYKVRSSEMADVAQKLEQLEVMMSNVQEDDLSQLATETVHYNPAELYTWLDSMLTDLNSGGSGSGSSGGSGTSYDELKALADTFSLDENGNKLKKGKHGMRNFIINNVISNKRFHYLIRYGDPAHLHEIAKNEAVVKFVLGRIADIQKKQGQNGKNQIDRYYETCIGKDKGKSVSEKVDALTKIITGMNYDQFDKKRSVIEDTGRENAEREKFKKIISLYLTVIYHILKNIVNINARYVIGFHCVERDAQLYKEKGYDINLKKLEEKGFSSVTKLCAGIDETAPDKRKDVEKEMAERAKESIDSLESANPKLYANYIKYSDEKKAEEFTRQINREKAKTALNAYLRNTKWNVIIREDLLRIDNKTCTLFRNKAVHLEVARYVHAYINDIAEVNSYFQLYHYIMQRIIMNERYEKSSGKVSEYFDAVNDEKKYNDRLLKLLCVPFGYCIPRFKNLSIEALFDRNEAAKFDKEKKKVSGNSGSGPKKKRKV
B1: the “performance in the tested conditions” value in assay [1] is “highest performance”.

B2: 655/656: RfxCas13d split pair at 655/656, plain or fused to CID domains (protein)
chain 1: IEKKKSFAKGMGVKSTLVSGSKVYMTTFAEGSDARLEKIVEGDSIRSVNEGEAFSAEMADKNAGYKIGNAKFSHPKGYAVVANNPLYTGPVQQDMLGLKETLEKRYFGESADGNDNICIQVIHNILDIEKILAEYITNAAYAVNNISGLDKDIIGFGKFSTVYTYDEFKDPEHHRAAFNNNDKLINAIKAQYDEFDNFLDNPRLGYFGQAFFSKEGRNYIINYGNECYDILALLSGLRHWVVHNNEEESRISRTWLYNLDKNLDNEYISTLNYLYDRITNELTNSFSKNSAANVNYIAETLGINPAEFAEQYFRFSIMKEQKNLGFNITKLREVMLDRKDMSEIRKNHKVFDSIRTKVYTMMDFVIYRYYIEEDAKVAAANKSLPDNEKSLSEKDIFVINLRGSFNDDQKDALYYDEANRIWRKLENIMHNIKEFRGNKTREYKKKDAPRLPRILPAGRDVSAFSKLMYALTMFLDGKEINDLLTTLINKFDNIQSFLKVMPLIGVNAKFVEEYAFFKDSAKIADELRLIKSFARMGEPIADARRAMYIDAIRILGTNLSYDELKALADTFSLDENGNKLKKGKHGMRNFIINNVISNKRFHYLIRYGDPAHLHEIAKNEAVVKFVLGRIADIQKKQGQNGKNQIDRYYETCIGK
chain 2: DKGKSVSEKVDALTKIITGMNYDQFDKKRSVIEDTGRENAEREKFKKIISLYLTVIYHILKNIVNINARYVIGFHCVERDAQLYKEKGYDINLKKLEEKGFSSVTKLCAGIDETAPDKRKDVEKEMAERAKESIDSLESANPKLYANYIKYSDEKKAEEFTRQINREKAKTALNAYLRNTKWNVIIREDLLRIDNKTCTLFRNKAVHLEVARYVHAYINDIAEVNSYFQLYHYIMQRIIMNERYEKSSGKVSEYFDAVNDEKKYNDRLLKLLCVPFGYCIPRFKNLSIEALFDRNEAAKFDKEKKKVSGNS
As for B2, in the assay with mCherry, the “performance after NES/NLS compartmentalization” value is listed as “high inducibility with minimal leakiness” and the “knockdown across the various CID systems” value was “efficient knockdown; also recorded: consistently strong drug-induced knockdown”.

B3: SEQ ID NO: 793: inducible system polypeptide, probably Table 20 (GID-GAI) (protein)
chain: MLDLASLILIEKKKSFAKGMGVKSTLVSGSKVYMTTFAEGSDARLEKIVEGDSIRSVNEGEAFSAEMADKNAGYKIGNAKFSHPKGYAVVANNPLYTSGGSGSGSSGGSGTMAASDEVNLIESRTVVPLNTWVLISNFKVAYNILRRPDGTFNRHLAEYLDRKVTANANPVDGVFSFDVLIDRRINLLSRVYRPAYADQEQPPSILDLEKPVDGDIVPVILFFHGGSFAHSSANSAIYDTLCRRLVGLCKCVVVSVNYRRAPENPYPCAYDDGWIALNWVNSRSWLKSKKDSKVHIFLAGDSSGGNIAHNVALRAGESGIDVLGNILLNPMFGGNERTESEKSLDGKYFVTVRDRDWYWKAFLPEGEDREHPACNPFSPRGKSLEGVSFPKSLVVVAGLDLIRDWQLAYAEGLKKAGQEVKLMHLEKATVGFYLLPNNNHFHNVMDEISAFVNAECLDLASLIL
Turning to B3, in assay [1], the “performance in the tested conditions” value is listed as “highest performance”.

B4: SEQ ID NO: 797: inducible system polypeptide, probably Table 20 (GID-GAI) (protein)
chain: MLDLASLILIEKKKSFAKGMGVKSTLVSGSKVYMTTFAEGSDARLEKIVEGDSIRSVNEGEAFSAEMADKNAGYKIGNAKFSHPKGYAVVANNPLYTGPVQQDMLGLKETLEKRYFGESADGNDNICIQVIHNILDIEKILAEYITNAAYAVNNISGLDKDIIGFGKFSTVYTYDEFKDPEHHRAAFNNNDKLINAIKAQYDEFDNFLDNPRLGYFGQAFFSKEGRNYIINYGNECYDILALLSGLRHWVVHNNEEESRISRTWLYNLDKNLDNEYISTLNYLYDRITNELTNSFSKNSAANVNYIAETLGINPAEFAEQYFRFSIMKEQKNLGFNITKLREVMLDRKDMSEIRKNHKVFDSIRTKVYTMMDFVIYRYYIEEDAKVAAANKSLPDNEKSLSEKDIFVINLRGSFNDDQKDALYYDEANRIWRKLENIMHNIKEFRGNKTREYKKKDAPRLPRILPAGRDVSAFSKLMYALTMFLDGKEINDLLTTLINKFDNIQSFLKVMPLIGVNAKFVEEYAFFKDSAKIADELRLIKSFARMGEPIADARRAMYIDAIRILGTNLSGGSGSGSSGGSGTMAASDEVNLIESRTVVPLNTWVLISNFKVAYNILRRPDGTFNRHLAEYLDRKVTANANPVDGVFSFDVLIDRRINLLSRVYRPAYADQEQPPSILDLEKPVDGDIVPVILFFHGGSFAHSSANSAIYDTLCRRLVGLCKCVVVSVNYRRAPENPYPCAYDDGWIALNWVNSRSWLKSKKDSKVHIFLAGDSSGGNIAHNVALRAGESGIDVLGNILLNPMFGGNERTESEKSLDGKYFVTVRDRDWYWKAFLPEGEDREHPACNPFSPRGKSLEGVSFPKSLVVVAGLDLIRDWQLAYAEGLKKAGQEVKLMHLEKATVGFYLLPNNNHFHNVMDEISAFVNAECLDLASLIL
Take B4: in assay [1], the “performance in the tested conditions” value was “highest performance”.

B5: SEQ ID NO: 800: inducible system polypeptide, probably Table 20 (GID-GAI) (protein)
chain: MAPKKKRKVGIHGVPAAKRDHHHHHHQDKKTMMMNEEDDGNGMDELLAVLGYKVRSSEMADVAQKLEQLEVMMSNVQEDDLSQLATETVHYNPAELYTWLDSMLTDLNSGGSGSGSSGGSGTALADTFSLDENGNKLKKGKHGMRNFIINNVISNKRFHYLIRYGDPAHLHEIAKNEAVVKFVLGRIADIQKKQGQNGKNQIDRYYETCIGKDKGKSVSEKVDALTKIITGMNYDQFDKKRSVIEDTGRENAEREKFKKIISLYLTVIYHILKNIVNINARYVIGFHCVERDAQLYKEKGYDINLKKLEEKGFSSVTKLCAGIDETAPDKRKDVEKEMAERAKESIDSLESANPKLYANYIKYSDEKKAEEFTRQINREKAKTALNAYLRNTKWNVIIREDLLRIDNKTCTLFRNKAVHLEVARYVHAYINDIAEVNSYFQLYHYIMQRIIMNERYEKSSGKVSEYFDAVNDEKKYNDRLLKLLCVPFGYCIPRFKNLSIEALFDRNEAAKFDKEKKKVSGNSSGSGPKKKRKV
With B5, the “performance in the tested conditions” value in assay [1] is recorded as “highest performance”.

B6: 559/560: RfxCas13d split between residues 559/560; N and C fragments plain or fused to CID domains (protein)
chain 1: IEKKKSFAKGMGVKSTLVSGSKVYMTTFAEGSDARLEKIVEGDSIRSVNEGEAFSAEMADKNAGYKIGNAKFSHPKGYAVVANNPLYTGPVQQDMLGLKETLEKRYFGESADGNDNICIQVIHNILDIEKILAEYITNAAYAVNNISGLDKDIIGFGKFSTVYTYDEFKDPEHHRAAFNNNDKLINAIKAQYDEFDNFLDNPRLGYFGQAFFSKEGRNYIINYGNECYDILALLSGLRHWVVHNNEEESRISRTWLYNLDKNLDNEYISTLNYLYDRITNELTNSFSKNSAANVNYIAETLGINPAEFAEQYFRFSIMKEQKNLGFNITKLREVMLDRKDMSEIRKNHKVFDSIRTKVYTMMDFVIYRYYIEEDAKVAAANKSLPDNEKSLSEKDIFVINLRGSFNDDQKDALYYDEANRIWRKLENIMHNIKEFRGNKTREYKKKDAPRLPRILPAGRDVSAFSKLMYALTMFLDGKEINDLLTTLINKFDNIQSFLKVMPLIGVNAKFVEEYAFFKDSAKIADELRLIKSFARMGEPIADARRAMYIDAIRILGTNL
chain 2: SYDELKALADTFSLDENGNKLKKGKHGMRNFIINNVISNKRFHYLIRYGDPAHLHEIAKNEAVVKFVLGRIADIQKKQGQNGKNQIDRYYETCIGKDKGKSVSEKVDALTKIITGMNYDQFDKKRSVIEDTGRENAEREKFKKIISLYLTVIYHILKNIVNINARYVIGFHCVERDAQLYKEKGYDINLKKLEEKGFSSVTKLCAGIDETAPDKRKDVEKEMAERAKESIDSLESANPKLYANYIKYSDEKKAEEFTRQINREKAKTALNAYLRNTKWNVIIREDLLRIDNKTCTLFRNKAVHLEVARYVHAYINDIAEVNSYFQLYHYIMQRIIMNERYEKSSGKVSEYFDAVNDEKKYNDRLLKLLCVPFGYCIPRFKNLSIEALFDRNEAAKFDKEKKKVSGNS
In the case of B6, in the assay on mCherry (Danoprevir-inducible, 2 NESs on N terminal moiety and 2 NLSs on C terminal moiety), the induced knockdown result was “over 60%”. In the assay with mCherry, the “performance after NES/NLS compartmentalization” value was “high inducibility with minimal leakiness” and the “knockdown across the various CID systems” value is on record as “efficient knockdown; also recorded: consistently strong drug-induced knockdown”. For the same molecule, the “performance of reversed CID orientation versus original orientation” value in the assay with mCherry (GIB: N ss-GAI/GID-ss C, ABA: N ss-PYL/ABI-ss C) was “stronger inducibility and weaker leakiness”. In addition, in the assay with mCherry (split pair), the target knockdown efficiency result is “more than 80%”.
